In test [1] the target is T1, human VEGF-D (human, UniProt O43915 93-201, limits assumed).
T1 construct: Bought protein (R&D Systems); also called Vascular endothelial growth factor D
T1 sequence (looked up): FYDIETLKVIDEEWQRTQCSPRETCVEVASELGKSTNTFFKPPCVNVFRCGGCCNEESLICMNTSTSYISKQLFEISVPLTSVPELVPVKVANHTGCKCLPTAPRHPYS
Description: ELISA, VEGF-D coated on plate, anti-human Fc-HRP detection. How it is done: (§1) To measure binding capacities of fusion polypeptides to each target, ELISA (Enzyme-linked immunosorbent assay) was conducted. On a 96-well MaxiSorp™ flat-bottom plate (Nunc), 50 ul of human VEGF-C, VEGF-D, or Ang2 (R&D Systems) were coated in the concentration of […]. And then, the plate was washed 5 times with PBS containing 0.05% Tween-20, and then, blocked with PBS containing 1% BSA at room temperature for 2 hours. 50 ul of each fusion polypeptide was put in each well according to concentration, and then, the plate was incubated at room temperature for 2 hours. And then, it was washed 5 times with PBS containing 0.05% Tween-20, and then, HRP-conjugated anti-human Fc antibody (Sigma) was diluted to 1:5,000 with PBS containing 1% BSA and reacted at room temperature for 1 hour, and washed 5 times with PBS containing 0.1% Tween-20. Finally, to each well of the plate, 50 μl of TMB substrate (SIGMA) was added to cause color reaction, and then, the reaction was stopped with 50 μl of a 5N H₂SO₄ solution, and OD450 value was measured on a plate reader (Molecular Devices). Thereby, binding capacities (KD) of the manufactured fusion polypeptides to human VEGF-C, VEGF-D or Ang2 protein were measured.
A general note: In an ELISA, binding on a coated surface is turned into a signal by an enzyme label.

Test [2] concerns the target T2, human VEGF-C (human, UniProt P49767 103-227).
T2 construct: Bought protein (R&D Systems); also called VC; Vascular endothelial growth factor C
T2 sequence (looked up): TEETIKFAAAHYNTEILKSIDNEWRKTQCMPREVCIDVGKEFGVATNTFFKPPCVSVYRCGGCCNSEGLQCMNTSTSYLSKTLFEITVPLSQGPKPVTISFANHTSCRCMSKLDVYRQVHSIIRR
Description: ELISA, VEGF-C coated on plate, anti-human Fc-HRP detection. As for the experimental part: as §1

Test [3] deals with T3, human Ang2 (human, UniProt O15123 19-496).
T3 construct: Bought protein (R&D Systems); also called A2; angiopoietin 2
T3 sequence (looked up): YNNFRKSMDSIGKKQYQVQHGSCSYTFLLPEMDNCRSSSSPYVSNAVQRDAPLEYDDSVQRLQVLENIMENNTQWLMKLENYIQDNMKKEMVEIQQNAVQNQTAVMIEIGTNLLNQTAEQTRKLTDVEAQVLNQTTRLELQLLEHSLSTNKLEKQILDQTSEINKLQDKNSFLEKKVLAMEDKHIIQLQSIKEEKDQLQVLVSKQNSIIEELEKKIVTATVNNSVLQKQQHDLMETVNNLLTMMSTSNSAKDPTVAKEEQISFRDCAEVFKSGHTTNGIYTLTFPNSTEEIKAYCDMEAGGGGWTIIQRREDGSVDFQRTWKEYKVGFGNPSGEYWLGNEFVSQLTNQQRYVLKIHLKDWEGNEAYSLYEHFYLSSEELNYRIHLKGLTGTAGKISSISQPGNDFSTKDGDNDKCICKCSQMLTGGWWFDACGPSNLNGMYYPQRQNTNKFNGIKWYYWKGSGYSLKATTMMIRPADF
The experiment in a line: ELISA, Ang2 coated on plate, anti-human Fc-HRP detection. How it is done:
as §1

These results are taken from US20150023958A1 (SAMSUNG ELECTRONICS, published 2015).

For orientation: Kd means the equilibrium constant for the complex coming apart. The low end stands for a tighter complex, the high end for a looser complex.

B1: V-body (Fc fusion)
chain: ASDYRSPFIASVSDQHGVVYITENKNKTVVIPCLGSISNLNVSLCARYPEKRFVPDGNRISWDSKKGFTIPSYMISYAGMVFCEAKINDESYQSIMYIVVVVGEQPFINKPDTLLVNRKDAMWVPCLVSIPGLNVTLRSQSSVLWPDGQEVVWDDRRGMLVSTPLLHDALYLQCETTWGDQDFLSNPFLVHITG
notes: Expressed in 293-F cells and purified on MabSelect SuRe; also called fusion polypeptide V-body; R2-2/R3-2-Fc; not shown: Fc fragment of human IgG1, fused to the C-terminus through the pFUSE-hIgG1-Fc1 vector (InvivoGen)
B1: the Kd in test [1] and in test [2] was 0.1 µM throughout. Further, the binding result in test [3] is on record as “no binding”.

B2: AV-body 2 (Fc fusion)
chain: AMDLILINSLPLVSDAETSLTCIASGWRPHEPITIGRDFEALMNQHQDPLEVTQDVTREWAKKVVWKREKASKINGAYFCEGRVRGEAIRIRTMKMRQQASFLPATLTMTVDKGDNVNISFKKVLIKEEDAVIYKNGSFIHSVPRHEVPDILEVHLPHAQPQDAGVYSARYIGGNLFTSAFTRLIVRRCEAQKWGPECNHLCTACMNNGVCHEDTGECICPPGFMGRTCEKACELHTFGRTCKERCSGQEGCKSYVFCLPDPYGCSCATGWKGLQCNEACHPGFYGPDCKLRCSCNNGEMCDRFQGCLCSPGWQGLQCEREGIEFMQSKVLLAVALWLCVETRAASDYRSPFIASVSDQHGVVYITENKNKTVVIPCLGSISNLNVSLCARYPEKRFVPDGNRISWDSKKGFTIPSYMISYAGMVFCEAKINDESYQSIMYIVVVVGEQPFINKPDTLLVNRKDAMWVPCLVSIPGLNVTLRSQSSVLWPDGQEVVWDDRRGMLVSTPLLHDALYLQCETTWGDQDFLSNPFLVHITG
notes: also called fusion polypeptide AV-body 2; Tie2-ECD/R2-2/R3-2-Fc; not shown: Fc fragment of human IgG1, fused to the C-terminus through the pFUSE-hIgG1-Fc1 vector (InvivoGen)
As to B2, the Kd in test [1] was 0.042 µM; in test [2], 0.034 µM; in test [3] it was 0.02 µM.

B3: AV-body 1 (Fc fusion)
chain: AMDLILINSLPLVSDAETSLTCIASGWRPHEPITIGRDFEALMNQHQDPLEVTQDVTREWAKKVVWKREKASKINGAYFCEGRVRGEAIRIRTMKMRQQASFLPATLTMTVDKGDNVNISFKKVLIKEEDAVIYKNGSFIHSVPRHEVPDILEVHLPHAQPQDAGVYSARYIGGNLFTSAFTRLIVRRCEAQKWGPECNHLCTACMNNGVCHEDTGECICPPGFMGRTCEKACELHTFGRTCKERCSGQEGCKSYVFCLPDPYGCSCATGWKGLQCNEACHPGFYGPDCKLRCSCNNGEMCDRFQGCLCSPGWQGLQCEREGIEFSPFIASVSDQHGVVYITENKNKTVVIPCLGSISNLNVSLCARYPEKRFVPDGNRISWDSKKGFTIPSYMISYAGMVFCEAKINDESYQSIMYIVVVVGYRIYDVVLSPSHGIELSVGEKLVLNCTARTELNVGIDFNWEYPSSKHQHKKLVNRDLKTQSGSEMKKFLSTLTIDGVTRSDQGLYTCAASSGLMTKKNSTFVRVHE
notes: also called fusion polypeptide AV-body 1; Tie2-ECD/R2-2/R2-3-Fc; not shown: Fc fragment of human IgG1, fused to the C-terminus through the pFUSE-hIgG1-Fc1 vector (InvivoGen)
As for B3, the Kd in test [1] turned out to be 0.17 µM; in test [2], 0.13 µM; in test [3] it was 0.045 µM.
